Measurements from patent US20080194027, “Compositions, methods and kits based on small nuclear RNAs” (Trustees of the University of Pennsylvania, published 2008).

Assays:
[1] = molecular target: T1, snRNP total proteins (TPs; seven Sm proteins plus U1 snRNP proteins) (Homo sapiens, UniProt P14678;P62314;P62316;P62318;P62304;P62306;P62308;P08621;P09012;P09234 …); test: pulldown; Sm core assembly, Y12 IP; details: tags: anti-TMG immunopurified from HeLa; label: 32P-UTP
[2] = molecular target: T1, snRNP total proteins (TPs; seven Sm …); test: pulldown; Y12 IP; phosphorothioate interference at U92, C86, G109, none in Sm site; details: tags: anti-TMG immunopurified from HeLa; label: 32P-UTP

| Binder | binding result [1] | binding result [2] |
| --- | --- | --- |
| AUUCUUG (ssRNA, [none]) [HSUR5-60 Sm U3C] | binds |  |
| AUUUUUG (ssRNA) [HSUR5-60 (nt 60-114)] |  | binds |
| ACUUUUG (ssRNA, [none]) [HSUR5-60 Sm U1C] | binds |  |
| AUUUCUG (ssRNA, [none]) [HSUR5-60 Sm U4C] | binds |  |
| AUCUUUG (ssRNA, [none]) [HSUR5-60 Sm U2C] | binds |  |
